Assay [1] addresses T1, recombinant human CD38 protein having a C-terminal His tag (ACRO Biosystems, Cat No.: CD8-H5224) (human, UniProt P28907 43-300).
T1 construct: Bought protein; not shown: C-terminal His tag
T1 sequence (looked up): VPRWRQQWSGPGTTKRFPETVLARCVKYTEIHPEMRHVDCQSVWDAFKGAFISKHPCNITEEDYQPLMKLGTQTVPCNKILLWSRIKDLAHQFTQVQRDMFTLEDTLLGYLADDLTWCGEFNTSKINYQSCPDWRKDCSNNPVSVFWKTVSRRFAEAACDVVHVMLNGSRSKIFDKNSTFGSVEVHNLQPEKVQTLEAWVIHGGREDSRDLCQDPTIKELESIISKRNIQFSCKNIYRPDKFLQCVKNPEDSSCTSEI
Put plainly: phage ELISA on the recombinant antigen, by a process similar to the one described for BCMA. (In general: ELISA stands for enzyme-linked immunosorbent assay.)

Assay [2] addresses T2, recombinant human BCMA protein having a C-terminal Fc tag (ACRO Biosystems, Cat No.: BC7-H5254) (human, UniProt Q02223 1-54).
T2 construct: Bought protein; Clones were also screened on CHO cells expressing human BCMA (CHO-BCMA); also called CD269; not shown: C-terminal Fc tag
T2 sequence (looked up): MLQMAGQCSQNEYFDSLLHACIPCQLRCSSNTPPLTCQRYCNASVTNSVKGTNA
Put plainly: phage ELISA: plate coated with recombinant human BCMA protein (Fc control protein in parallel) or CHO-BCMA cells; phage supernatant, HRP anti-M13, A450. As to the method: Phage ELISA was performed to identify clones specific to the target antigens. Individual output phage clones were grown in 96-deep-well plate and rescued by M13KO7 helper phage overnight. To identify clones that bind to antigen proteins, 96-well ELISA microtiter plates were coated with recombinant human BCMA protein and Fc control protein respectively in coating buffer overnight at 4° C., and the plates were then blocked with blocking buffer. After blocking, approximately 50 μl per well of phage supernatant from the overnight cell culture was added to the plates for 1.5-hour incubation at 4° C. The plates were washed four times, and the HRP-conjugated anti-M13 monoclonal antibody was added to the plates for 45-minute incubation at 4° C. The plates were again washed five times and substrate solution was added to the wells for developing. Absorption at 450 nm was measured for each well.
To identify clones that bind CHO-BCMA cells, the CHO-BCMA cells were blocked with blocking buffer at room temperature for 1 hour. After blocking, approximately 20 μl per well of phage supernatant from the overnight cell culture was added to the cell solutions for 1-hour incubation at room temperature. After the cells were washed 4 times, the HRP-conjugated anti-M13 monoclonal antibody was added for 30-minute incubation at room temperature. The cells were washed five times and substrate solution was then added for developing. The absorption was measured at 450 nm.

Residue numbers refer to the chain shown, from its start.

B1: 38A37326 (VHH)
VHH: EVQLVESGGGLVQAGGSLRLSCAASGRTYAMGWYRQAPGKQRDLVATISGAGNTKYADSVKGRFTISRDNAKNTMYLQMNSLKPEDTAVYYCAAGKWFPAANEYWGQGTQVTVSS
notes: Llama VHH from an immune phage library; also called anti-CD38 sdAb
Turning to B1, the binding result in assay [1] is “binds”.

B2: 269A37936 (VHH)
VHH: EVQLVESGGGVVQAGGSLTVSCTASGFTFDRAVIVWFRQAPGKGREGVSFIKPSDGTIYYIDSLKGRFTISSDIAKNTVYLQMKSLESEDSAVYYCAASPEDWYTDWIDWSIYRWQHWGQGTQVTVSS
notes: Llama VHH from an immune phage library; also called anti-BCMA sdAb
As for B2, the binding result in assay [2] is reported as “binds”.

B3: 38A37333 (VHH)
VHH: DVQLVESGGGLVQPGGSLRLSCVASGLTFSSYPMMWVRQAPGKGLEWVSRISDSGGYTNYDDSVKGRFTISRDNAKNTLYLQMNSLTPEDTAVYYCRILGLPTTGQGTQVTVSS
notes: as for B1
Regarding B3, the binding result in assay [1] was “binds”.

B4: 269A37355 (VHH)
VHH: AVQLVDSGGGLVQPGGSLRLSCVASGGIFVINAMGWYRQAPGKQRELVASIRGLGRTNYDDSVKGRFTISRDNANNTVYLQMNSLEPEDTAVYYCTVYVTLLGGVNRDYWGQGTQVTVSS
notes: as for B2
For B4, in assay [2], the binding result was “binds”.

B5: 269A37972 (VHH)
VHH: QVQLVESGGGLVQAGGSLRLSCAASGGTLSKNTVAWFRQAPGKERGFVASITWDGRTTYYADSVKGRFTISRDNAKNTVYLQMNSLKPEDTAVYVCADLGKWPAGPADYWGQGTQVTVSS
notes: as for B2
Regarding B5, the binding result in assay [2] is “binds”.

B6: 269A37915 (VHH)
VHH: EVQLVESGGGLVQAGGSLRLSCAASGRTFSSIVMGWFRQAPGKEREFVGAIMWNDGITYLQDSVKGRFTIFRDNAKNTVYLQMNSLKLEDTAVYYCAASKGRYSEYEYWGQGTQVTVSS
notes: as for B2
As to B6, the binding result in assay [2] is given as “binds”.

B7: 269A37953 (VHH)
VHH: B6 VHH with L11M, G16D, A23V, A24Q, G26T, R27Y, F29V, S30N, I32D
notes: as for B2
Consider B7, for which, in assay [2], the binding result is given as “binds”.

B8: 269A37948 (VHH)
VHH: AVQLVESGGGLVQAGDSLRLTCTASGRAFSTYFMAWFRQAPGKEREFVAGIAWSGGSTAYADSVKGRFTISRDNAKNTVYLQMNSLKSEDTAVYYCASRGIEVEEFGAWGQGTQVTVSS
notes: as for B2
In the case of B8, in assay [2], the binding result is reported as “binds”.

B9: 269A37965 (VHH)
VHH: AVQLVESGGGLVQAGDSLRLSCTASGATLTNDHMAWFRQAPGKGREFVAAIDWSGRTTNYADPVEGRFTISRNNAKNTVYLEMNSLKLEDTAVYYCAVLRAWISYDNDYWGQGTQVTVSS
notes: as for B2
With B9, in assay [2], the binding result was “binds”.

B10: 38A37731 (VHH)
VHH: QVKLEESGGGLVQAGGSLRLSCVASGTIVSISTMGWYRQAPGKQRELVATITRRGRTNYTDSVKGRFTISRDNAKNTVYLQMNSLKPEDTAVYYCNAEVQLDIWASAYDYWGQGTQVTVAS
notes: as for B1
For B10, in assay [1], the binding result was “binds”.

B11: 38A37331 (VHH)
VHH: QVKLEESGGGLVQPGESLRLSCSASGSIFKVFRVFAMSWYRQGPGKQRELVASISSGETTTYADSVKGRFTISRDNAKNTAYLQMDSLKPEDTAVYYCNADHTFTGDFWGQGTQVTVSS
notes: as for B1
With B11, the binding result in assay [1] is listed as “binds”.

B12: 38A37334 (VHH)
VHH: EVQLVESGGGLVQAGGSLRLSCAASGLTFSSYIMGWFRQAPGEERELVAEISSGGMTSYADSVKGRFTISRDNAKKTGYLQMNSLKPEDTAVYYCAAPERGSIWYSRYEYKYWGQGTQVTVSS
notes: as for B1
Take B12: the binding result in assay [1] was “binds”.

B13: 38A37699 (VHH)
VHH: QVQLVESGGGLVQAGGSLRLSCAASGRIFSINAMGWYRQAPGKQRELVAAISTAGSTNYGDSVKGRFTISRDNAKNTVYLQMNSLKPEDTAVYYCNLNFPPYVYWGQGTQVTVSS
notes: as for B1
For B13, the binding result in assay [1] is “binds”.

B14: 38A37340 (VHH)
VHH: DVQLVESGGGLVQAGDSLRLSCAASGRTFSSYAMAWFRQAPGKEREIVSSISTSGGITDYADSVKGRFTISKDSAKMNTVYLQMNSLEPEDTAVYYCAARTWYLRTSLQYDYWGQGTQVTVSS
notes: as for B1
As to B14, the binding result in assay [1] is “binds”.

B15: 38A37330 (VHH)
VHH: QVQLVESGGGLVQAGDSLRLSCAASGRAYATMAWFRQAPGKEREFVAHLRVSGDTTYYTDSVKGRFTISRDNAKNTAYLQMNMLKPEDTAVYYCAAGPYGILAAARVSNPGNYDYWGQGTQVTVSS
notes: as for B1
Regarding B15, the binding result in assay [1] is given as “binds”.

B16: 38A37719 (VHH)
VHH: QVKLEESGGGSVQTGGSLRLSCAASASIFTRLPMGWYRQAPGKQRELVVGIVPSGRINYADSVKGRFTISRDNAKNTVYLQMNSLRPEDTAVYYCRADTFPLPTWGQGTQVTVSS
notes: as for B1
In the case of B16, in assay [1], the binding result is on record as “binds”.

B17: 38A37336 (VHH)
VHH: EVQLVESGGGLVQPGGSLRLSCAASGFTFSSNWMYWVRQAPGKGLEWVATISTDGRGTYYKDSVKGRFTVSRDNAMSTLLLQMNNLKSEDTAVYYCAKEPRVLMAYLRNLGDFGSWGQGTQVTVSS
notes: as for B1
In the case of B17, the binding result in assay [1] is reported as “binds”.

(Values after patent US20180230225A1 (LEGEND BIOTECH USA, published 2018).)
